Experiments:
[1] = molecular target: TAG-72 expressed on the cell surface of Jurkat cells (human); experiment: flow cytometry on Jurkat cells expressing cell-surface TAG-72, 1 ug antibody, FITC-conjugated mouse anti-human antibody
[2] = molecular target: TAG-72 positive bovine submaxillary mucin (BSM) (bovine); experiment: SPR (BIAcore X), control Fab over immobilised BSM, BSA reference
[3] = molecular target: TAG-72 expressed on the cell surface of Jurkat cells (human); experiment: flow cytometry on Jurkat cells expressing cell-surface TAG-72, antibody amount not given, FITC-conjugated mouse anti-human antibody

Row | Substance | % Gated, marker M1 [1] [%] | % Gated, marker M2 [1] [%] | % Total, marker M1 [1] [%] | % Total, marker M2 [1] [%] | Mean, marker All [1] | Mean, marker M1 [1] | Mean, marker M2 [1] | koff [2] [s⁻¹] | also measured
1 | HuCC49 (antibody) | 70.8 | 29.4 | 60.6 | 25.2 | 18 | 4.36 | 50.9 | – | –
2 | Fab derived from murine CC49 | – | – | – | – | – | – | – | 0.000104 | –
3 | human immunoglobulin G (HuIgG) control (antibody) | – | – | – | – | – | – | – | – | % Gated, marker M1 [3]: 99.7%; % Gated, marker M2 [3]: 0.31%; % Total, marker M1 [3]: 92.1%; % Total, marker M2 [3]: 0.29%; Mean, marker All [3]: 3.54; Mean, marker M1 [3]: 3.49; Mean, marker M2 [3]: 20.5
4 | Fab derived from human IgG | – | – | – | – | – | – | – | 0.0138 | –
5 | cCC49 (antibody) | 27.2 | 73 | 12.2 | 32.7 | 41.6 | 5.92 | 54.8 | – | –
